The record followed here is US20030130484A1, “Inhibitors and disassemblers of fibrillogenesis” (priority 2001, published 2003).

For the assay, the target named is human Aβ1-40 peptide (human). The assay can be described thus: cell-based or functional assay.
Sequence of human Aβ1-40 peptide (human) (peptide, as listed by the source): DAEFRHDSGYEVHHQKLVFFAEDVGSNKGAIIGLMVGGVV

In the case of Ac-Aβ16-22 (Peptide VI), the IC50 of inhibition of Aβ40 fibrillogenesis (inhibitor:Aβ ratio) turned out to be 10, the Inhibition of Fibrillogenesis IC50 (thioflavin fluorescence) (inhibitor:Aβ40 molar ratio) was 8.4, the Inhibition of Fibrillogenesis ICmax was found to be 100% and the Inhibition of Fibrilogenesis IC50 (µM) was 8.4 µM. The substance also showed an Inhibition of Fibrilogenesis ICmax (%) of 100%.
Anth-Aβ16-20 (peptide) displayed an Inhibition of Fibrilogenesis IC50 (µM) of 0.3 µM and an Inhibition of Fibrilogenesis ICmax (%) of 100%.
Take Aβ16-22 (peptide): the Inhibition of Fibrillogenesis IC50 (thioflavin fluorescence) (inhibitor:Aβ40 molar ratio) is 1.1, the Inhibition of Fibrillogenesis ICmax is 23%, the Inhibition of Fibrilogenesis IC50 (µM) is 1.1 µM and the Inhibition of Fibrilogenesis ICmax (%) came out at 23%. Further, the percent inhibition of fibrillogenesis at concentrations at which Aβ16-22m inhibited completely lay in the range of 10 to 20%.
